{"source": "patent US5792629A", "about": "“Isolated DNA encoding novel protease inhibitory polypeptide” (Mochida Pharmaceutical Co., Ltd., priority 1990, dated 1998)", "molecules": {"B1": {"name": "TN70: polypeptide defined by the amino acid sequence of formula 3, purified from culture supernatant of E. coli JE5505 (pM552) (protein)", "chain": "TVAACNLPIVRGPCRAFIQLWAFDAVKGKCVLFPYGGCQGNGNKFYSEKECREYCGVPGDGDEELLRFSN"}, "B2": {"name": "TL66: polypeptide defined by formula 8; known enzyme-digested fragment of urinary trypsin inhibitor, made in E. coli JE5505 (pM551) (protein)", "chain": "TVAACNLPIVRGPCRAFIQLWAFDAVKGKCVLFPYGGCQGNGNKFYSEKECREYCGVPGDGDEELL"}, "B3": {"name": "UTI: urinary trypsin inhibitor purified from human urine (Mochida Pharmaceutical), used as positive control (protein)", "chain": "AVLPQEEEGSGGGQLVTEVTKKEDSCQLGYSAGPCMGMTSRYFYNGTSMACETFQYGGCMGNGNNFVTEKECLQTCRTVAACNLPIVRGPCRAFIQLWAFDAVKGKCVLFPYGGCQGNGNKFYSEKECREYCGVPGDGDEELLRFSN", "modifications": "glycoprotein (sugar moieties, as the filing says in general of UTI)"}}, "key": {"Human trypsin": {"biological_target": "T1, Human trypsin (Homo sapiens, UniProt P07477)", "T1 construct": "purchased Calbiochem", "test": "Human trypsin-inhibiting activity, substrate S-2444", "assay_type": "biochemical", "details": "purified sample, various concentrations; remaining activity vs buffer control (FIG. 14A-C)", "experimental": "The purified sample obtained in Example 1-(5) was dissolved in 100 μl of distilled water. Concentration of this solution was determined based on its bovine trypsin-inhibiting activity using the aforementioned UTI as a standard. The solution was then diluted to various concentration levels with 0.1% BSA/0.2M triethanolamine-HCl buffer (pH 7.8) for the activity measurement. The aforementioned UTI was also diluted in the same manner.\nUsing the aforementioned synthetic compound S-2444 as a substrate, human trypsin-inhibiting activities of the diluted test samples and the positive control were measured in accordance with the method of Kassell (Kassell B., Methods in Enzymol., vol 19, pp.84-852, 1970) as follows.\nHuman trypsin (Calbiochem) was dissolved in 0.001M HCl to a concentration of 1,000 SU/ml and the solution was further diluted with 0.1% BSA/0.2M triethanolamine-HCl buffer (pH 7.8) to prepare 1.25 SU/ml of trypsin solution. 2 mM solution of S-2444 was prepared by dissolving it in distilled water.\n(§1) Next, 100 μl of the test sample or positive control was mixed with 100 μl of the trypsin solution. After incubation at 37° C. for 10 minutes, 50 μl of the S-2444 solution was added to the mixture to start the reaction. The reaction was carried out at 37° C. for 20 minutes and then stopped by adding 50 μl of 50% acetic acid solution to the reaction mixture. Thereafter, absorbance at 405 nm was measured using a spectrophotometer.\nIn this instance, in order to eliminate absorbance of various solutions in the reaction mixture, a blank solution was prepared by mixing 100 μl of the trypsin solution with 50 μl of 50% acetic acid and then with 100 μl of each test sample or the positive control and with 50 μl of the S-2444 solution.\nIn this figure, human trypsin remaining activity was expressed by percentage based on the absorbance of a control reaction mixture in which 100 μl of 0.1% BSA/0.2M triethanolamine-HCl buffer (pH 7.8) was used instead of the test sample or the positive control."}, "[1]": {"test_system": "ORTHO Plasma Coagulation Control Level 1", "test": "Measurement of activated partial thromboplastin time (aPTT)", "details": "for effect on aPTT, anticoagulant activity: conclusion from Table 1; for aPTT (%): aPTT of distilled water control taken as 100%", "experimental": "The COAGTEC (TE-600, ERMA OPTICAL WORKS LTD), a measurement instrument, was used and the following operation was conducted at 37° C. to measure the effect of polypeptide of the present invention on activated partial thromboplastin time (hereinafter abbreviated as aPTT).\nFirst, purified samples obtained in Example 1 (5), Example 2 (5) and Example 3 (4) were dissolved in 100 μl of distilled water. Concentration of each solution was determined based on bovine trypsin-inhibiting activity using UTI as a standard. Each solution was then diluted to various concentration levels for activity measurement.\nAfterward, 50 μl of the ORTHO Plasma Coagulation Control Level 1 (Ortho Diagnostic Systems Co., Ltd.) was put into glass tubes. 50 μl of the sample or 50 μl of distilled water as control was added. Furthermore, 100 μl of the Activated THROMBOFAX Reagent-Optimized (Ortho Diagnostic Systems Co., Ltd.) was added and then each glass tube was set in the apparatus. 100 μl of 0.02M CaCl2 was then added to each glass tube for the measurement, and aPTT for each test samples and the control was obtained.\nThe aPTT values of the samples are described in percentage when taking the aPTT value of control as 100%."}, "Human plasma plasmin": {"biological_target": "T2, Human plasma plasmin (Homo sapiens, UniProt P00747)", "T2 construct": "Human plasma plasmin (Sigma Chemical Co.) was dissolved in physiological saline; purchased Sigma Chemical Co; host or cells: human plasma", "T2 sequence (P00747 97-810)": "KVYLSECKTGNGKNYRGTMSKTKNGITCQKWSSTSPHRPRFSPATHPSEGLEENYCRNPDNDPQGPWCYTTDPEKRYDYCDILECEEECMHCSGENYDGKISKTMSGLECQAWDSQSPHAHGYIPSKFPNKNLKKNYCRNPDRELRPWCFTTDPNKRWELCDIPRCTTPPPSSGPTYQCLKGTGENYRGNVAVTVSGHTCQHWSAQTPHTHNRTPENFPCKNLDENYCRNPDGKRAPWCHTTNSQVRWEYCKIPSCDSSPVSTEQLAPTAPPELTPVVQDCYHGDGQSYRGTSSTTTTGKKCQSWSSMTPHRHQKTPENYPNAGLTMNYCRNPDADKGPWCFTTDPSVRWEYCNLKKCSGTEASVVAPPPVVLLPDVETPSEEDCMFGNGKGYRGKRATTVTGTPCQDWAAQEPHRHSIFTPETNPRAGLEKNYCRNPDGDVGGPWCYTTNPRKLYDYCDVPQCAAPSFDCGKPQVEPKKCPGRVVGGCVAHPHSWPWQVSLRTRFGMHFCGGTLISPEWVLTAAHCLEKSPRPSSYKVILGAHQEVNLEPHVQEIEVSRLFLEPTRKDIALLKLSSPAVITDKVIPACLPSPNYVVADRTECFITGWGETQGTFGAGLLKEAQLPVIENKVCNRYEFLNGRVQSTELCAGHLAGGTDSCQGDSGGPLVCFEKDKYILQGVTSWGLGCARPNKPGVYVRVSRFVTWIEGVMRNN", "test": "Plasmin-inhibiting activity, substrate S-2251", "assay_type": "biochemical", "details": "purified sample, various concentrations; remaining activity vs buffer control (FIG. 16A-C)", "experimental": "The purified sample obtained in Example 1-(5) was dissolved in 100 μl of distilled water. Concentration of this solution was determined based on its bovine trypsin-inhibiting activity using the aforementioned UTI as a standard. The solution was then diluted to various concentration levels with 0.11M NaCl/50 mM Tris-HCl buffer (pH 7.4) for use in the activity measurement. The UTI was also diluted in the same manner. Using a synthetic compound S-2251 (Daiichi Pure Chemicals Co., Ltd.) as a substrate, human plasmin-inhibiting activities of the diluted test samples and the positive control were measured in accordance with the method of Friberger et al. (Friberger,P. et al., Haemostasis, vol.7, pp.138-145, 1978).\nHuman plasma plasmin (Sigma Chemical Co.) was dissolved in physiological saline to a concentration of 1 U/ml and the solution was further diluted with 50% glycerol/2 mM HCl solution to prepare 0.1 U/ml of plasmin solution. 3.5 mM solution of S-2251 was prepared by dissolving it in distilled water.\nas §1, with “Next, 50” for “Next, 100”, “with 50 μl of the plasmin solution and” for “with”, “of 0.11M NaCl/50 mM Tris-HCl buffer (pH 7.4).” for “of the trypsin solution.”, “the S-2251” for “the S-2444”, “for 2” for “for 20”, “adding 25” for “adding 50”\nIn this instance, in order to eliminate absorbance of various solutions in the reaction mixture, a blank solution was prepared by mixing 50 μl of the plasmin solution with 25 μl of 50% acetic acid and then with 50 μl of each test sample or the positive control, 100 μl of 0.11M NaCl/50 mM Tris-HCl buffer (pH 7.4) and with 50 μl of the S-2251 solution.\nIn this figure, human plasmin remaining activity was expressed by percentage based on the absorbance of a control reaction mixture in which 50 μl of 0.11M NaCl/50 mM Tris-HCl buffer (pH 7.4) was used instead of the test sample or the positive control."}}, "data": [{"molecule": "CC51: polypeptide defined by the amino acid sequence of formula 1, purified from culture supernatant of E. coli JE5505 (pM560) (CNLPIVRGPCRAFIQLWAFDAVKGKCVLFPYGGCQGNGNKFYSEKECREYC)", "values": [{"measurement": "human trypsin-inhibiting activity", "setting": "Human trypsin", "value": "activity was found"}, {"measurement": "effect on aPTT, anticoagulant activity", "setting": "[1]", "value": "have an effect to extend aPTT and anticoagulant activity"}, {"measurement": "aPTT (%)", "setting": "[1]; final concentration 33 U/ml", "value": 172, "unit": "%"}, {"measurement": "aPTT (%)", "setting": "[1]; final concentration 167 U/ml", "value": 256, "unit": "%"}, {"measurement": "human plasmin-inhibiting activity", "setting": "Human plasma plasmin", "value": "activity was found"}]}, {"molecule": "B1", "values": [{"measurement": "human trypsin-inhibiting activity", "setting": "Human trypsin", "value": "activity was found"}, {"measurement": "effect on aPTT, anticoagulant activity", "setting": "[1]", "value": "have an effect to extend aPTT and anticoagulant activity"}, {"measurement": "aPTT (%)", "setting": "[1]; final concentration 33 U/ml", "value": 155, "unit": "%"}, {"measurement": "aPTT (%)", "setting": "[1]; final concentration 167 U/ml", "value": 230, "unit": "%"}, {"measurement": "human plasmin-inhibiting activity", "setting": "Human plasma plasmin", "value": "activity was found"}]}, {"molecule": "B2", "values": [{"measurement": "human trypsin-inhibiting activity", "setting": "Human trypsin", "value": "activity was found"}, {"measurement": "effect on aPTT, anticoagulant activity", "setting": "[1]", "value": "have an effect to extend aPTT and anticoagulant activity"}, {"measurement": "aPTT (%)", "setting": "[1]; final concentration 33 U/ml", "value": 157, "unit": "%"}, {"measurement": "aPTT (%)", "setting": "[1]; final concentration 167 U/ml", "value": 239, "unit": "%"}, {"measurement": "human plasmin-inhibiting activity", "setting": "Human plasma plasmin", "value": "activity was found"}]}, {"molecule": "B3", "values": [{"measurement": "human trypsin-inhibiting activity", "setting": "Human trypsin", "value": "activity was found"}, {"measurement": "human plasmin-inhibiting activity", "setting": "Human plasma plasmin", "value": "activity was found"}]}]}
